Experiment: yeast display, Sf9 membrane polyspecificity reagent, FACS + sequencing; frameworks hold sequencing errors
Procedure, shortened: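 Polyreactivity labels are assigned by the sorting gate from which each nanobody was recovered. The gates were low and high (top ~1%), set on anti-HA fluorescence for expression and streptavidin fluorescence for reagent binding. Before sorting, galactose-induced (36–48 hours) yeast display cells were stained for 1 hour at 4 °C with 10% biotinylated, detergent-solubilized Sf9 membrane reagent.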

Row | Sequence | polyreactivity (PSR sort gate)
1 | QVQLVESGGGLVQAGGSLRLSCAASGSIFYSYAMGWYRQAPGKERELVAAITSNAGGITRYADSVKGRFTISRDNAKNTVYLQMNSLKPEDTAVYYCAARGHYYTRYWGQGTQVTVSS | high polyreactivity
2 | QVQLVESGGGLVQAGGSLRLSCAASGSIFGPYAMGWYRQAPGKERELVAVISRSGGSTYYADSVKGRFTISRDNAKNTVYLQMNSLKPEDTAVYYCAAYRGPRADYYWGQGTHVTVSS | high polyreactivity
3 | QVQLVESGGGLVQAGGSLRLSCAASGRIFYTYVMGWYRQAPGKERELVAAINRSGGTTYYADSVKGRFTISRDNAKNTGYLPMNSLKPEDTAVYYCNATLPDYWPYYYYQGGDDYWGQGTQVTVSS | low polyreactivity
4 | QVQLVKSGGGLVQAGGSLRLTCAASGFTFFVYAMGWYRQAPGKETELVAAITSSGGSTYYADSVKGRFTISRDNAKNTVYLQMNSLKPEDTAVYYCAPDRYSYLGYPYEYEYWGQGTQVTVSS | low polyreactivity
5 | QVQLVESGGGLVQAGGSLRLSCAASGSTLYRYAMGWYRQAPGQERELFATIRSGVNTNYADSVKGRFTISRDNAKNTVYLQMNSLKPEDTAVYYCNARTVYGVYWGRYDYWGQGTQVTVSS | high polyreactivity
6 | QVPLVESGGGLVQAGGSLRLSCAASGSTLAANAMGWYRQAPGKERELVAAIDGGGSTYYADSVKGRFTISRDNAKNTVYLQMNILKPDDTAVYYCATPYVWTITQKKYDYWGQGTQVTVSS | low polyreactivity
7 | QVQLVESGGGLVQAGGSLRLSCAASGRTFYAYAMGWSRQAPGKERELVAAITSGASTYYADSVKGRFTISRDNAKNTVYLQMNSLKPEDTAVYYCAKRVRYYKPGYDYWGQGTQVTVSS | low polyreactivity
8 | QVQLVESGGGLVQAGGSLRLSCAASGSIYDFYAMGWYRQAPGKERELVAAISWSGTSTYYADSVKGRFTISRDNAKNTVYLQMNSLKPEDTAVYYCAVVAGQSYFNRYDYWGQGTQVTVSS | low polyreactivity
9 | QVQLVESGGGLVQAGGSLRLSCAASGSIFWYNAMGWSRPAPGKERELVAAITWSGGSTYYADSVKGRFTISRDNAKNTVYLQMNSLKPEDTAVYYCATVPHYYYDYDYWGQGTQVTVSS | low polyreactivity
10 | QVQLVESGGGLVQAGGSLRLSCAASGGIFVQYTMGWYRQAPGKERELVAAISTGGSTYYADSVKGRFTISRDNAKNTVYLQMNSLKPEDTAVYYCAVVYRSQYSRYTSQWKEYYWGQGTQVTVSS | low polyreactivity
11 | QVQLVESGGGLVQAGGSLRLSCAASGFTVYKYVKGWYRQAPGKERELVAAITTSGGSTYYADSVKGRFTISRDNPKNTVYLQMNSLKPEDTAVYYCNARSLHTSEGDYWGQGTQVTVSS | low polyreactivity
12 | QVQLVESGGALVQAGGSLRLICAASGRIFPRNVMGWYRQAPGKERELVAAISSRGTRTYYADSVKGRFTISRDNAKNTVYLQMYSLKPEDTAVYYCAADGPYEGYDYWGQGTQVTVSS | high polyreactivity
13 | QVQLLESGGGLVQAGGSLRLTCAASGSIFVIYAMGWYRQAPGKVRELVAAIDSSDGSTYYADSVKGRFTISRDNAKNTVYLQMNSLKPEDTAVYYCAARRLYWGQGTQVTVSS | high polyreactivity
14 | QDQLVESRGGLVQAGGSLRLSCAASGSTLSGNAMGWYRQAPGKERELVAAITSSGGRTYYADSVKGRFTISRDNAKNTVYLQMNSLKPEDTAVYYCAKDRYGWGQGTQVTVSS | high polyreactivity
15 | QVQLVESGGGLVQAGGSLRLSCAASGSTFRPNAMGWYRQAPGKERELVAAITSGGSTYYADSVKGRFTISRDNAKNTVYLQMNSLKPEDTAVYYCNKDKFWSYPVQVNLDYWGQGTQVTVSS | low polyreactivity
16 | QVQLVESGGGLDQAGGSHRLSCAASGSNLSGYAMVWYRQAPGKERELVADISWTGGSTYYADSVKGRLTISRDNAKNTVYLQMISLKPEVTAVYYCATRSGYRRSRVIYYHDDYGYWGQGTQVTVSS | high polyreactivity
17 | QVQLVESGGGLVQAGGSLRLSCAASGYTFHGYAMGWYRQAPGKESELVAVITQRGGSTSYADSVKGRFTISRDNAKITVYLQMNSLKPEDTAVYYCNASAWLVVARTRYGYWGQGTQVTVSS | low polyreactivity

Reference: the nanobody polyreactivity screen of Harvey et al. (2022)
